{"source": "paper PMC5028202", "about": "(ACS chemical biology, 2015)", "proteins": {"B1": {"name": "XCL1 CC5 (A36C A49C), disulfide-locked XCL1dim variant (natural protein, UniProt P47992 22-114, looked up)", "chain": "VGSEVSDKRTCVSLTTQRLPVSRIKTYTITEGSLRCVIFITKRGLKVCCDPQATWVRDVVRSMDRKSNTRNNMIQTKPTGTQQSTNTAVTLTG"}}, "biological_target": "the molecule itself", "experiment": "NMR structure"}
{"protein": "B1", "values": [{"measurement": "stoichiometry N", "result": 2}]}
